Data taken from US20250136721A1 (GlaxoSmithKline, published 2025).
Like-named read-outs stand apart in the source and are kept apart here.

Key:
[1] = biological target: pre-existing anti-VH ADA in human serum; experiment: ADA confirmation assay (MSD): 10 ug/mL test material against labelled DOM1H-131-206, mean of 10 sera
[2] = biological target: pre-existing anti-VH ADA in human serum; experiment: ADA confirmation assay (MSD): 10 ug/mL test material against labelled DOM1H-131-206; share of 10 ADA-positive sera with binding
[3] = biological target: pre-existing anti-VH ADA in human serum; experiment: as above; remark: listed apart in the source
[4] = biological target: pre-existing anti-VH ADA in human serum; experiment: ADA confirmation assay (MSD): 10 ug/mL test material against labelled DOM1H-131-206, mean of 10 sera; remark: listed apart in the source

Row | Binder | Mean % inhibition of signal in confirmation assay [1] [%] | % subjects with ADA binding (10 subjects) (% of subjects) [2] | % subjects with ADA binding (10 subjects) (% of subjects) [3] | Mean % inhibition of signal in confirmation assay [4] [%]
1 | DOM1H-131-206 P14K + C-terminal A (protein, name in Kabat numbering) VH: EVQLLESGGGLVQKGGSLRLSCAASGFTFAHETMVWVRQAPGKGLEWVSHIPPDGQDPFYADSVKGRFTISRDNSKNTLYLQMNSLRAEDTAVYHCALLPKRGPWFDYWGQGTLVTVSSA | 29.1 | 10 | – | –
2 | DOM1H-131-206 P14T + C-terminal A (protein, name in Kabat numbering) VH: EVQLLESGGGLVQTGGSLRLSCAASGFTFAHETMVWVRQAPGKGLEWVSHIPPDGQDPFYADSVKGRFTISRDNSKNTLYLQMNSLRAEDTAVYHCALLPKRGPWFDYWGQGTLVTVSSA | 33 | 20 | – | –
3 | DOM1H-131-206 P14Q + C-terminal A (protein, name in Kabat numbering) VH: EVQLLESGGGLVQQGGSLRLSCAASGFTFAHETMVWVRQAPGKGLEWVSHIPPDGQDPFYADSVKGRFTISRDNSKNTLYLQMNSLRAEDTAVYHCALLPKRGPWFDYWGQGTLVTVSSA | 29.7 | 20 | – | –
4 | DOM1H-131-206 P14A + C-terminal A (protein) VH: EVQLLESGGGLVQAGGSLRLSCAASGFTFAHETMVWVRQAPGKGLEWVSHIPPDGQDPFYADSVKGRFTISRDNSKNTLYLQMNSLRAEDTAVYHCALLPKRGPWFDYWGQGTLVTVSSA | 8.76 | – | – | –
5 | DOM1H-131-206 C-terminal AST (protein) VH: EVQLLESGGGLVQPGGSLRLSCAASGFTFAHETMVWVRQAPGKGLEWVSHIPPDGQDPFYADSVKGRFTISRDNSKNTLYLQMNSLRAEDTAVYHCALLPKRGPWFDYWGQGTLVTVSSAST | 35 | 20 | 50 | 26.4
6 | DOM1H-131-206 C-terminal AS (protein) VH: EVQLLESGGGLVQPGGSLRLSCAASGFTFAHETMVWVRQAPGKGLEWVSHIPPDGQDPFYADSVKGRFTISRDNSKNTLYLQMNSLRAEDTAVYHCALLPKRGPWFDYWGQGTLVTVSSAS | – | – | – | 16.3
7 | DOM1H-131-206 C-terminal ASTKG (protein) VH: EVQLLESGGGLVQPGGSLRLSCAASGFTFAHETMVWVRQAPGKGLEWVSHIPPDGQDPFYADSVKGRFTISRDNSKNTLYLQMNSLRAEDTAVYHCALLPKRGPWFDYWGQGTLVTVSSASTKG | 1.77 | – | 40 | 28.3
8 | DOM1H-131-206 P14Q + C-terminal ASTKG (protein, name in Kabat numbering) VH: EVQLLESGGGLVQQGGSLRLSCAASGFTFAHETMVWVRQAPGKGLEWVSHIPPDGQDPFYADSVKGRFTISRDNSKNTLYLQMNSLRAEDTAVYHCALLPKRGPWFDYWGQGTLVTVSSASTKG | 21.8 | 10 | – | –
9 | DOM1H-131-206 P14T + C-terminal ASTKG (protein, name in Kabat numbering) VH: EVQLLESGGGLVQTGGSLRLSCAASGFTFAHETMVWVRQAPGKGLEWVSHIPPDGQDPFYADSVKGRFTISRDNSKNTLYLQMNSLRAEDTAVYHCALLPKRGPWFDYWGQGTLVTVSSASTKG | 17.2 | – | – | –
10 | DOM1H-131-206 P14A + C-terminal ASTKG (protein) VH: EVQLLESGGGLVQAGGSLRLSCAASGFTFAHETMVWVRQAPGKGLEWVSHIPPDGQDPFYADSVKGRFTISRDNSKNTLYLQMNSLRAEDTAVYHCALLPKRGPWFDYWGQGTLVTVSSASTKG | 11.9 | – | – | –
11 | DOM1H-131-206 P14K + C-terminal ASTKG (protein, name in Kabat numbering) VH: EVQLLESGGGLVQKGGSLRLSCAASGFTFAHETMVWVRQAPGKGLEWVSHIPPDGQDPFYADSVKGRFTISRDNSKNTLYLQMNSLRAEDTAVYHCALLPKRGPWFDYWGQGTLVTVSSASTKG | 25 | 10 | – | –
12 | DT04-H-033 C-terminal AS (protein) VH: EVQLLESGGGLVQPGGSLRLSCAASGFTFADYGMAWVRQAPGKGLEWVSTISYNGLYTYYADSVKGRTISRDNSKNTLYLQMNSLRAEDTAVYYCAKYEYSPESDFDYWGQGTLVTVSSAS | – | – | – | 8.26
13 | DOM1H-131-206 C-terminal S deletion (ΔS) (protein) VH: EVQLLESGGGLVQPGGSLRLSCAASGFTFAHETMVWVRQAPGKGLEWVSHIPPDGQDPFYADSVKGRFTISRDNSKNTLYLQMNSLRAEDTAVYHCALLPKRGPWFDYWGQGTLVTVS | 44.7 | 40 | – | –
14 | DT04-H-033 C-terminal A (protein) VH: EVQLLESGGGLVQPGGSLRLSCAASGFTFADYGMAWVRQAPGKGLEWVSTISYNGLYTYYADSVKGRTISRDNSKNTLYLQMNSLRAEDTAVYYCAKYEYSPESDFDYWGQGTLVTVSSA | – | – | – | 12.5
15 | DT04-H-033 C-terminal AAA (protein) VH: EVQLLESGGGLVQPGGSLRLSCAASGFTFADYGMAWVRQAPGKGLEWVSTISYNGLYTYYADSVKGRTISRDNSKNTLYLQMNSLRAEDTAVYYCAKYEYSPESDFDYWGQGTLVTVSSAAA | – | – | – | 11
16 | DT04-H-033 C-terminal AST (protein) VH: EVQLLESGGGLVQPGGSLRLSCAASGFTFADYGMAWVRQAPGKGLEWVSTISYNGLYTYYADSVKGRTISRDNSKNTLYLQMNSLRAEDTAVYYCAKYEYSPESDFDYWGQGTLVTVSSAST | – | – | – | 14
17 | DOM1H-131-206 L108Q (protein, name in Kabat numbering) VH: EVQLLESGGGLVQPGGSLRLSCAASGFTFAHETMVWVRQAPGKGLEWVSHIPPDGQDPFYADSVKGRFTISRDNSKNTLYLQMNSLRAEDTAVYHCALLPKRGPWFDYWGQGTQVTVSS | – | – | 100 | 90.9
18 | DOM1H-131-206 L108A (protein, name in Kabat numbering) VH: EVQLLESGGGLVQPGGSLRLSCAASGFTFAHETMVWVRQAPGKGLEWVSHIPPDGQDPFYADSVKGRFTISRDNSKNTLYLQMNSLRAEDTAVYHCALLPKRGPWFDYWGQGTAVTVSS | 94.3 | 100 | – | –
19 | DOM1H-131-206 S112A (protein, name in Kabat numbering) VH: EVQLLESGGGLVQPGGSLRLSCAASGFTFAHETMVWVRQAPGKGLEWVSHIPPDGQDPFYADSVKGRFTISRDNSKNTLYLQMNSLRAEDTAVYHCALLPKRGPWFDYWGQGTLVTVAS | 77.1 | 80 | – | –
20 | DOM1H-131-206 P14Q (protein, name in Kabat numbering) VH: EVQLLESGGGLVQQGGSLRLSCAASGFTFAHETMVWVRQAPGKGLEWVSHIPPDGQDPFYADSVKGRFTISRDNSKNTLYLQMNSLRAEDTAVYHCALLPKRGPWFDYWGQGTLVTVSS | 52.9 | 60 | – | –
21 | DOM1H-131-206 P14E (protein, name in Kabat numbering) VH: EVQLLESGGGLVQEGGSLRLSCAASGFTFAHETMVWVRQAPGKGLEWVSHIPPDGQDPFYADSVKGRFTISRDNSKNTLYLQMNSLRAEDTAVYHCALLPKRGPWFDYWGQGTLVTVSS | 47.2 | 60 | – | –
22 | DOM1H-131-206 T110A (protein, name in Kabat numbering) VH: EVQLLESGGGLVQPGGSLRLSCAASGFTFAHETMVWVRQAPGKGLEWVSHIPPDGQDPFYADSVKGRFTISRDNSKNTLYLQMNSLRAEDTAVYHCALLPKRGPWFDYWGQGTLVAVSS | 78.8 | 100 | – | –
23 | DOM1H-131-206 Q13A (protein, name in Kabat numbering) VH: EVQLLESGGGLVAPGGSLRLSCAASGFTFAHETMVWVRQAPGKGLEWVSHIPPDGQDPFYADSVKGRFTISRDNSKNTLYLQMNSLRAEDTAVYHCALLPKRGPWFDYWGQGTLVTVSS | – | – | 100 | 99.2
24 | DOM1H-131-206 L11A (protein, name in Kabat numbering) VH: EVQLLESGGGAVQPGGSLRLSCAASGFTFAHETMVWVRQAPGKGLEWVSHIPPDGQDPFYADSVKGRFTISRDNSKNTLYLQMNSLRAEDTAVYHCALLPKRGPWFDYWGQGTLVTVSS | 98 | 100 | – | –
25 | DOM1H-131-206 P14A (protein) VH: EVQLLESGGGLVQAGGSLRLSCAASGFTFAHETMVWVRQAPGKGLEWVSHIPPDGQDPFYADSVKGRFTISRDNSKNTLYLQMNSLRAEDTAVYHCALLPKRGPWFDYWGQGTLVTVSS | – | – | 100 | 58.3
26 | DOM1H-131-206 P14K (protein, name in Kabat numbering) VH: EVQLLESGGGLVQKGGSLRLSCAASGFTFAHETMVWVRQAPGKGLEWVSHIPPDGQDPFYADSVKGRFTISRDNSKNTLYLQMNSLRAEDTAVYHCALLPKRGPWFDYWGQGTLVTVSS | 46.7 | 50 | – | –
27 | DOM1H-131-206 P14T (protein, name in Kabat numbering) VH: EVQLLESGGGLVQTGGSLRLSCAASGFTFAHETMVWVRQAPGKGLEWVSHIPPDGQDPFYADSVKGRFTISRDNSKNTLYLQMNSLRAEDTAVYHCALLPKRGPWFDYWGQGTLVTVSS | 68.9 | 100 | – | –
28 | DOM1H-131-206 C-terminal ASTK (protein) VH: EVQLLESGGGLVQPGGSLRLSCAASGFTFAHETMVWVRQAPGKGLEWVSHIPPDGQDPFYADSVKGRFTISRDNSKNTLYLQMNSLRAEDTAVYHCALLPKRGPWFDYWGQGTLVTVSSASTK | – | – | 40 | 19.6
